Experimental data from paper PMC2120044 (The Journal of Cell Biology, 1994).

Biological target: the molecule itself
Assay: SEC

B1: cofactor A purified from bovine testis (natural protein, UniProt P48427 1-108, looked up)
chain: MADPRVRQIKIKTGVVKRLVKEKMMYEKEAKQQEEKIEKMKAEDGENYAIKKQAEILQESRMMIPDCQRRLEAAHTDLLQLLESEKDLEEAEEYKEARLVLDSVKLEA
stoichiometry N: 2
